Test results reported in patent US9249224B2 (RINAT NEUROSCIENCE CORP., priority 2011, dated 2016).

System: ALS
Test: Serum ALS levels in cynomolgus monkeys after a single antibody dose
Assay type: in vivo, cynomolgus monkey
Conditions: for serum ALS levels decreased to about: by 96 hours; for serum ALS decrease below control: by 72 hours
Procedure: To determine if GHR antagonist monoclonal antibodies can affect IGF-1, IGFBP-3, and ALS levels in vivo by inhibiting the function of GHR, the effect of humanized anti-human GHR antibody SS1 was tested in cynomolgus monkeys. A dose-response study was conducted to test for changes in IGF-1, IGFBP-3, and ALS levels following a single dose of SS1. Eight naïve female cynomolgus monkeys were injected intravenously with a single dose of SS1 or negative control human IgG2, in 1×PBS 0.01% Tween™ 20. Two monkeys were dosed with 30 mg/kg SS1, two were dosed with 10 mg/kg SS1, two were dosed with 3 mg/kg SS1, and two were dosed with 30 mg/kg negative control human IgG2Δa on Day 1. […] Serum was also taken from the 30 mg/kg SS1 and negative control treated animals at 864 h post-dose.
Serum samples were analyzed for changes in ALS levels compared to baseline using a BioVendor™ Human ALS ELISA kit (cat. #RMEE35R).
Six naïve female cynomolgus monkeys were injected either intravenously or subcutaneously with a single dose of […] or negative control human IgG2Δa in 1×PBS 0.01% Tween™ 20. Two monkeys were dosed with 3 mg/kg SS1 intravenously, two were dosed with 3 mg/kg SS1 subcutaneously, and two were dosed with 3 mg/kg negative control human IgG2Δa subcutaneously on Day 1. Serum samples were taken from all animals at the following timepoints: pre-dose, 24 h, 72 h, 120 h, 168 h, 216 h, 264 h, 312 h, 360 h, 408 h, 456 h and 504 h.

B1: SS1: humanized GHR antagonist antibody; VL SEQ ID NO: 7, VH SEQ ID NO: 8; hIgG2Δa heavy chain SEQ ID NO: 134, light chain SEQ ID NO: 135 (antibody)
heavy: EVQLVESGGGLVKPGGSLRLSCAASGFTFSDAWMDWVRQAPGKGLEWVAEIRSKANYHATYYAESVKGRFTISRDDSKNTLYLQMNSLKTEDTAVYYCTLIRDYWGQGTLVTVSSASTKGPSVFPLAPCSRSTSESTAALGCLVKDYFPEPVTVSWNSGALTSGVHTFPAVLQSSGLYSLSSVVTVPSSNFGTQTYTCNVDHKPSNTKVDKTVERKCCVECPPCPAPPVAGPSVFLFPPKPKDTLMISRTPEVTCVVVDVSHEDPEVQFNWYVDGVEVHNAKTKPREEQFNSTFRVVSVLTVVHQDWLNGKEYKCKVSNKGLPSSIEKTISKTKGQPREPQVYTLPPSREEMTKNQVSLTCLVKGFYPSDIAVEWESNGQPENNYKTTPPMLDSDGSFFLYSKLTVDKSRWQQGNVFSCSVMHEALHNHYTQKSLSLSPGK
light: EIVLTQSPGTLSLSPGERATLSCTATSSVSSSYLNWYQQKPGQAPRLLIYSTSNLASGIPDRFSGSGSGTDFTLTISRLEPEDFAVYYCHQYHRSTPTFGGGTKVEIKRTVAAPSVFIFPPSDEQLKSGTASVVCLLNNFYPREAKVQWKVDNALQSGNSQESVTEQDSKDSTYSLSSTLTLSKADYEKHKVYACEVTHQGLSSPVTKSFNRGEC
modifications: Humanized and/or affinity matured antibody sequence
B1 was tested, and the “serum ALS levels (% change from baseline)” value (Table 12, cynomolgus monkeys, SS1 3 mg/kg IV single dose, 24 h post-injection) was −23.0 +/− 4.0%, the “serum ALS levels (% change from baseline)” value (Table 12, cynomolgus monkeys, SS1 3 mg/kg IV single dose, 48 h post-injection) was −41.7 +/− 3.6% and the “serum ALS levels (% change from baseline)” value (Table 12, cynomolgus monkeys, SS1 3 mg/kg IV single dose, 72 h post-injection) was −45.4 +/− 0.9%. The “serum ALS levels (% change from baseline)” value (Table 12, cynomolgus monkeys, SS1 3 mg/kg IV single dose, 96 h post-injection) was −50.7 +/− 2.3%, the “serum ALS levels (% change from baseline)” value (Table 12, cynomolgus monkeys, SS1 3 mg/kg IV single dose, 120 h post-injection) was −48.0 +/− 0.4% and the “serum ALS levels (% change from baseline)” value (Table 12, cynomolgus monkeys, SS1 3 mg/kg IV single dose, 144 h post-injection) was −45.5 +/− 8.4%. For the same molecule, the “serum ALS levels (% change from baseline)” value (Table 12, cynomolgus monkeys, SS1 3 mg/kg IV single dose, 192 h post-injection) was −50.7 +/− 8.8%, the “serum ALS levels (% change from baseline)” value (Table 12, cynomolgus monkeys, SS1 3 mg/kg IV single dose, 312 h post-injection) was −22.0 +/− 8.2% and the “serum ALS levels (% change from baseline)” value (Table 12, cynomolgus monkeys, SS1 3 mg/kg IV single dose, 336 h post-injection) was −23.7 +/− 6.4%. For the same molecule, the “serum ALS levels (% change from baseline)” value (Table 12, cynomolgus monkeys, SS1 10 mg/kg IV single dose, 24 h post-injection) was 27.3 +/− 32.1%, the “serum ALS levels (% change from baseline)” value (Table 12, cynomolgus monkeys, SS1 10 mg/kg IV single dose, 48 h post-injection) was −9.4 +/− 23.4% and the “serum ALS levels (% change from baseline)” value (Table 12, cynomolgus monkeys, SS1 10 mg/kg IV single dose, 72 h post-injection) was −8.0 +/− 35.2%. For the same molecule, the “serum ALS levels (% change from baseline)” value (Table 12, cynomolgus monkeys, SS1 10 mg/kg IV single dose, 96 h post-injection) was −24.1 +/− 23.6%, the “serum ALS levels (% change from baseline)” value (Table 12, cynomolgus monkeys, SS1 10 mg/kg IV single dose, 120 h post-injection) was −17.5 +/− 30.4% and the “serum ALS levels (% change from baseline)” value (Table 12, cynomolgus monkeys, SS1 10 mg/kg IV single dose, 144 h post-injection) was −46.5 +/− 1.9%. The “serum ALS levels (% change from baseline)” value (Table 12, cynomolgus monkeys, SS1 10 mg/kg IV single dose, 192 h post-injection) was −39.4 +/− 3.3%, the “serum ALS levels (% change from baseline)” value (Table 12, cynomolgus monkeys, SS1 10 mg/kg IV single dose, 312 h post-injection) was −38.7 +/− 4.1% and the “serum ALS levels (% change from baseline)” value (Table 12, cynomolgus monkeys, SS1 10 mg/kg IV single dose, 336 h post-injection) was −40.4 +/− 0.4%. For the same molecule, the “serum ALS levels (% change from baseline)” value (Table 12, cynomolgus monkeys, SS1 30 mg/kg IV single dose, 24 h post-injection) was 3.9 +/− 4.2%, the “serum ALS levels (% change from baseline)” value (Table 12, cynomolgus monkeys, SS1 30 mg/kg IV single dose, 48 h post-injection) was −35.1 +/− 1.9% and the “serum ALS levels (% change from baseline)” value (Table 12, cynomolgus monkeys, SS1 30 mg/kg IV single dose, 72 h post-injection) was −34.9 +/− 10.5%. For the same molecule, the “serum ALS levels (% change from baseline)” value (Table 12, cynomolgus monkeys, SS1 30 mg/kg IV single dose, 96 h post-injection) was −48.8 +/− 8.0%, the “serum ALS levels (% change from baseline)” value (Table 12, cynomolgus monkeys, SS1 30 mg/kg IV single dose, 120 h post-injection) was −41.2 +/− 13.9% and the “serum ALS levels (% change from baseline)” value (Table 12, cynomolgus monkeys, SS1 30 mg/kg IV single dose, 144 h post-injection) was −50.0 +/− 4.4%. The “serum ALS levels (% change from baseline)” value (Table 12, cynomolgus monkeys, SS1 30 mg/kg IV single dose, 192 h post-injection) was −50.2 +/− 2.0%, the “serum ALS levels (% change from baseline)” value (Table 12, cynomolgus monkeys, SS1 30 mg/kg IV single dose, 312 h post-injection) was −47.1 +/− 2.7% and the “serum ALS levels (% change from baseline)” value (Table 12, cynomolgus monkeys, SS1 30 mg/kg IV single dose, 336 h post-injection) was −50.1 +/− 4.4%. The “serum ALS levels (% change from baseline)” value (Table 14, cynomolgus monkeys, SS1 3 mg/kg IV single dose, 24 hour post-injection) was −4.5 +/− 4.6%, the “serum ALS levels (% change from baseline)” value (Table 14, cynomolgus monkeys, SS1 3 mg/kg IV single dose, 72 hour post-injection) was −31.1 +/− 10.1% and the “serum ALS levels (% change from baseline)” value (Table 14, cynomolgus monkeys, SS1 3 mg/kg IV single dose, 120 hour post-injection) was −37.5 +/− 9.4%. For the same molecule, the “serum ALS levels (% change from baseline)” value (Table 14, cynomolgus monkeys, SS1 3 mg/kg IV single dose, 168 hour post-injection) was −32.9 +/− 4.0%, the “serum ALS levels (% change from baseline)” value (Table 14, cynomolgus monkeys, SS1 3 mg/kg IV single dose, 264 hour post-injection) was −9.3 +/− 2.5% and the “serum ALS levels (% change from baseline)” value (Table 14, cynomolgus monkeys, SS1 3 mg/kg IV single dose, 312 hour post-injection) was −4.9 +/− 3.0%. For the same molecule, the “serum ALS levels (% change from baseline)” value (Table 14, cynomolgus monkeys, SS1 3 mg/kg IV single dose, 360 hour post-injection) was −9.7 +/− 9.6%, the “serum ALS levels (% change from baseline)” value (Table 14, cynomolgus monkeys, SS1 3 mg/kg SQ single dose, 24 hour post-injection) was −15.9 +/− 0.2% and the “serum ALS levels (% change from baseline)” value (Table 14, cynomolgus monkeys, SS1 3 mg/kg SQ single dose, 72 hour post-injection) was −42.7 +/− 0.5%. For the same molecule, the “serum ALS levels (% change from baseline)” value (Table 14, cynomolgus monkeys, SS1 3 mg/kg SQ single dose, 120 hour post-injection) was −41.1 +/− 7.1%, the “serum ALS levels (% change from baseline)” value (Table 14, cynomolgus monkeys, SS1 3 mg/kg SQ single dose, 168 hour post-injection) was −33.7 +/− 6.5% and the “serum ALS levels (% change from baseline)” value (Table 14, cynomolgus monkeys, SS1 3 mg/kg SQ single dose, 264 hour post-injection) was −16.5 +/− 13.2%. For the same molecule, the “serum ALS levels (% change from baseline)” value (Table 14, cynomolgus monkeys, SS1 3 mg/kg SQ single dose, 312 hour post-injection) was −5.0 +/− 13.6%, the “serum ALS levels (% change from baseline)” value (Table 14, cynomolgus monkeys, SS1 3 mg/kg SQ single dose, 360 hour post-injection) was −10.0 +/− 10.2% and the “serum ALS levels decreased to about” value (cynomolgus monkeys, SS1 3 mg/kg IV single dose) was “about 51%”. The “serum ALS levels decreased to about” value (cynomolgus monkeys, SS1 10 mg/kg IV single dose) was about 24%, the “serum ALS levels decreased to about” value (cynomolgus monkeys, SS1 30 mg/kg IV single dose) was about 49% and the “time by which serum ALS levels returned to baseline levels” value (cynomolgus monkeys, single dose 3 mg/kg SS1 SQ or IV) was at most 312 h. The “serum ALS decrease below control” value (cynomolgus monkeys, single dose 3 mg/kg SS1 intravenous (IV)) was “about 31%”, the “serum ALS decrease below control” value (cynomolgus monkeys, single dose 3 mg/kg SS1 subcutaneous (SQ)) was “about 43%” and the “effect on serum ALS levels in cynomolgus monkey” value (single IV dose 3, 10 or 30 mg/kg) was “reduces serum ALS levels”.
